Assay results taken from the DeepSol protein solubility set.

Assay: soluble on expression in E. coli; label from the status in PepcDB or PDB records

Sequence | soluble on expression in E. coli
MQNSLLTQHIAQIIAAEISSQPTQARAAIALLDEGASVPFIARYRKEATGGLDDTQLRILETRLTYLRELEERRSTILTSITEQGKLNDLLHAEILAADTKSRLEDLYLPYKPKRRTRAQIAREAGLEPLADSLLADPTLIPETVAANFVDPEKGITDIKTALEGARAILIERWGEDAALIGELRQWLANNGVIHARLIDNKEDTGAKYRDYFNHTELLSKIPSHRLLALFRARSEEILHLDLDPGNDADAGHQYCESMVMQAACVADQGRPADTWLMTACRLTWRAKLHMHLMLDLFNQAREKAEAEAITVFSNNLKDLLLAAPAGPRIVLGIDPGIRTGCKIAIVDTTGKLIATETIYPHEPRREWDKSLHTLKTLCTQHHITLIAIGNGTASRETDKLVSDLIKAHPALELQKIVVSESGASVYSASESAAKEFPDLDVSLRGAVSIARRLQDPLAELVKIDPKAIGVGQYQHDVDQFHLAKALDARVEDCVNAVGVYVNTASAALLSRVSGLSASVAENITRYRDEHGSFKQRQDLLKVPRLGAKTFEQCAGFLRIADGNQPLDASAVHPEAYPVVERIVQTTGKPIKALIGDSHTLRMLKPEQFTDTNFGIPTIRDIIKELEKPGRDPRPEFKAVRFTEGVENIKDLKPGMILEGVVSNVAAFGAFVDIGVHQDGLIHISALADRFVKDPRDIVKAGDIVKVKVLEIDVPRKRIALTCRLHEETPPETPVANRTGNERGRPNPVAKKVKATPTDNALAQAFARARLK | soluble
MGSDKIHHHHHHMNDYIIEMLNITKEFPGIIANDNITLRLKKGEIHALLGENGAGKSTLMSVLFGLYQPEKGEIRKNGNTVKINNPNDANALGIGMVHQHFKLVEIFTVLENIILGVEPHALGFLQKKKAREKVVELSKQYGLEVNPDALIEKISVGMQQRVEILKMLYRDNEILIFDEPTAVLTPQEIDELMEIMRRFAKEGKSILFITHKLNEIMAVADRCTVLRKGQYVGTVDIKDTTKEELSRMMVGRDVSFRVQKETMTPGRVVLSVRNVSVPSKTSKKNAVSNVSFDVRAGEIVCLAGIDGNGQTEFVSALTGLERHTSGTITLCDQDISKASVRTRSQAGMSHIPEDRHKYGLVLDYTLEDNLVIQRYWQPQFQRFGFIRRKAVRSYAEGLIKQYDVRSGQGPLTIARSMSGGNQQKTIIGREIDKDHELLVAVQPTRGLDVGAIEYIHKQLVARRNAGKAVLLVSLELDEVMNVSDRILVMYEGEIVGELDPKTTTVQELGLYMSGAKRNLKEGSHAG | not soluble
MGSDKIHHHHHHMAHLPQMKIPATYMRGGTSKGVFFSLTDLPAAAQVAGAARDAILLRVIGSPDPYGKHTDGMGGATSSTSKTVILSKSTQADHDVDYLFGQVSIDKPFVDWSGNCGNLTAAVGSFAISNGLIDPSRVPENGTAIVRIWQANIHKTIIAHVPITNGEVQETGDFELDGVTFPAAEVQVEFLDPADGDGAMFPTGNVVDELNVPGVGTFKATMINAGIPTIFINAADIQYQGTELQDDINNDDKALAMFETIRAYGAVKMGLIKHIDEAVARQHTPKVAFVAPAANYISSSGKAVNTDDIDLVVRALSMGKLHHAMMGTAAVAIGTAAAIPGTLVNLAAGGGELSAVRFGHPSGTLRVGAQAALVQGQWQVKKAIMSRSARVLMEGKVSIPQ | not soluble
GLSDRYQRVKKLGSGAYGEVLLCKDKLTGAERAIKIIKKSSVTTTSNSGALLDEVAVLKQLDHPNIMKLYEFFEDKRNYYLVMEVYRGGELFDEIILRQKFSEVDAAVIMKQVLSGTTYLHKHNIVHRDLKPENLLLESKSRDALIKIVDFGLSAHFEVGGKMKERLGTAYYIAPEVLRKKYDEKCDVWSCGVILYILLCGYPPFGGQTDQEILKRVEKGKFSFDPPDWTQVSDEAKQLVKLMLTYEPSKRISAEEALNHPWIVKFCSQKHTDVGKHALTGALGNMKKFQSSQKLAQAAMLFMGSKLTTLEETKELTQIFRQLDNNGDGQLDRKELIEGYRKLMQWKGDTVSDLDSSQIEAEVDHILQSVDFDRNGYIEYSEFVTVCMDKQLLLSRERLLAAFQQFDSDGSGKITNEELGRLFGVTEVDDETWHQVLQECDKNNDGEVDFEEFVEMMQKICDVKVKH | soluble
MHHHHHHSSGVDLGTENLYFQSNAMADCYLTEKKKNFIPIQPMMPDELPDWLDTQDARTQQWVKASGFVGLAGTICSIPESTGALQRVLLGVSDYEYSWDFGGLSKVLPPGAFQLNRDDFEDDEYYERALLAFGLGSYQFNAYRKRSPYLAKLFLPQAHRKRVTDWLTTIYLIRDLINTPAEDMGPSELAQAVKHVAKEFEAKVKIIESKDLETEFPAIYAVGRAGSRPPLLIDLKWGDIKAPKVTLVGKGVCFDSGGLDIKTPGGMLLMKKDMGGAAHALGLARMIMLQQLPVRLRLLIPAVENAIGSRSYRPGDVVQTRARKTIEITNTDAEGRVVLADALAEAVKEDPDLIIDFSTLTGAARIALGPNLPALFANQDSLAQALIDASLKTDDPLWRLPLFQPYRNYLKSEVADLTNSSQNRMAGAITAALFLQHFVSDQIPWAHFDIFAWNLEDLPGRPIGGEAMALRAVFHYLEQQYR | soluble
MNKRMKMCPACQQGYLYHSKPKYLHDEIILCDECDAVWLKGMNIFYGEYEKDFYSYVPFMESQGITSECIWEGDLFDHPYYEDENSNDMD | not soluble
MEEHPKILSIAGSDSCAGAGMQADLKTAMSLGCHCCTILVVLTAQNTKEVKSIIEVDEKFIVEQLDAIFTDITIEVVKLGVLYSKKIISLIHNYITNINKMREKKLLVVFDPVFVSSSGCMLVENLDYVKYALDLICPLSCIITPNFYECKVILEALNFNIDINNMRTSDLCKLVTEKLNINACLFKSCNIDINTEDENKLYAVDHLCIKNDNDYDTKIKQNISYDVYKLKSKRNPQKDIHGTGCTLSTAISCFLSKKYDIIQACIESKKYIYNCINYAYDLGSKSQGLNHLKAAQHLTDFRELQVIKVD | not soluble
MGSDKIHHHHHHMKRKITPELSSKDWKEFCSRFHFDNDKLPLIRAIYTAMLPLVDAFAYYSIKQDLPGVSLAHYAYGLVTLGNGVDELSELYLNHEQLEEAYIADCLSLMLLSNAYEQFAKAVEEESSLYAIELSFLGDEYPLELLPEIFEHVSPDGIHLTGSNMLKPLKTAALIIKLDSQKRKNIKELCNTCANCKNLSCPSRKAPGPKLPHTYGAMQIFNIRH | not soluble
MMGVKAEALTGGFSSAVFDSQRIFKKLMDGMARPGTPQTIETAVAPPLPLAAATGAVLLALCDHDTPVWLNGALRKTAVPGWIGFHTGAPATEEKGAAHFAVIEAGSAIASFGLFAQGSQEYPDRSTTLIIELSDLDGGRELLLSGPGIRHVNIISPSGLPDIFPMLWAENNAIFPRGVDVILTAGDKFVCLPRTTRIKPVEA | not soluble
MTGAVCPGSFDPVTLGHVDIFERAAAQFDEVVVAILVNPAKTGMFDLDERIAMVKESTTHLPNLRVQVGHGLVVDFVRSCGMTAIVKGLRTGTDFEYELQMAQMNKHIAGVDTFFVATAPRYSFVSSSLAKEVAMLGGDVSELLPEPVNRRLRDRLNTERT | not soluble
MGSDKIHHHHHHMPSSVCGDPMMCQNCKKSVPNAIFHVYHRRGFHYPAQKCEENFILFLIKGEMLVNSREYAGTMLKAGEFMLQPISSKIEMLAMTDVECIYYQFNQPELFCDIRYNRIMKETDPPLIPSPLPIIPELQHFLESARTYLSEKKICRDLLSLKRKELAFILGYFYSDYDLASLVHPLSKYASSFECFVYQNYKKVKTVEEFAKLGGYSQTTFRRIFDNVFHEPVYEWMLSRRKEEIIYELQNTEATISEICYKFGFESLPHFSNFCKKSFGTSPRSIRLKRSSE | not soluble
MNLKSFTRKVSSTRDHRLLAEAIFDQLENLFSPHAIAIFEDPLTNPRCSVSFSRGELYPIQKYPEIFWDWACQFDTSESIIPLAINTCNWNHTQDLGGDSYILMLDNTPIKRTYLLIQSVQARTAHNIYEESYDAMQLAAARWQCIRAEKNASQEMRHRDIREAQYVDEISQRERFIENMKLVQQVALEISNPDSLKDLYYKAVEALRERLGFDRTTLMLLDMKKRSFSGTYGTDESGITIDEFHTQYDLHQLSEEYIAALSSLESNLVIIEDAPIYTAGKVVGQGWNAMLILRDGNEPFGWFALDNFIHRKPITAYQKQMLDSFGSLFSQIYIRKRQEQNVRMLHSSMVELSRCTTVSDVCKSAVTFAIKNLGIDRMAVFLTDENCSYMQGTWGTDIQGNVVDESYFFGETQNFSLINLARAVPSEVAFEESVPIYHDCNIVG | not soluble
